According to article PMC7560827, “Immunodominant proteins P1 and P40/P90 from human pathogen Mycoplasma pneumoniae” (Nature Communications, 2020):

B1: P1 extracellular region (residues Thr29-Asp1521) (domain or fragment)
chain: TVVGHFTSTTTTLKRQQFSYTRPDEVALRHTNAINPRLTPWTYRNTSFSSLPLTGENPGAWALVRDNSAKGITAGSGSQQTTYDPTRTEAALTASTTFALRRYDLAGRALYDLDFSKLNPQTPTRDQTGQITFNPFGGFGLSGAAPQQWNEVKNKVPVEVAQDPSNPYRFAVLLVPRSVVYYEQLQRGLGLPQQRTESGQNTSTTGAMFGLKVKNAEADTAKSNEKLQGAEATGSSTTSGSGQSTQRGGSSGDTKVKALKIEVKKKSDSEDNGQLQLEKNDLANAPIKRSEESGQSVQLKADDFGTALSSSGSGGNSNPGSPTPWRPWLATEQIHKDLPKWSASILILYDAPYARNRTAIDRVDHLDPKAMTANYPPSWRTPKWNHHGLWDWKARDVLLQTTGFFNPRRHPEWFDGGQTVADNEKTGFDVDNSENTKQGFQKEADSDKSAPIALPFEAYFANIGNLTWFGQALLVFGGNGHVTKSAHTAPLSIGVFRVRYNATGTSATVTGWPYALLFSGMVNKQTDGLKDLPFNNNRWFEYVPRMAVAGAKFVGRELVLAGTITMGDTATVPRLLYDELESNLNLVAQGQGLLREDLQLFTPYGWANRPDLPIGAWSSSSSSSHNAPYYFHNNPDWQDRPIQNVVDAFIKPWEDKNGKDDAKYIYPYRYSGMWAWQVYNWSNKLTDQPLSADFVNENAYQPNSLFAAILNPELLAALPDKVKYGKENEFAANEYERFNQKLTVAPTQGTNWSHFSPTLSRFSTGFNLVGSVLDQVLDYVPWIGNGYRYGNNHRGVDDITAPQTSAGSSSGISTNTSGSRSFLPTFSNIGVGLKANVQATLGGSQTMITGGSPRRTLDQANLQLWTGAGWRNDKASSGQSDENHTKFTSATGMDQQGQSGTSAGNPDSLKQDNISKSGDSLTTQDGNAIDQQEATNYTNLPPNLTPTADWPNALSFTNKNNAQRAQLFLRGLLGSIPVLVNRSGSDSNKFQATDQKWSYTDLHSDQTKLNLPAYGEVNGLLNPALVETYFGNTRAGGSGSNTTSSPGIGFKIPEQNNDSKATLITPGLAWTPQDVGNLVVSGTTVSFQLGGWLVTFTDFVKPRAGYLGLQLTGLDASDATQRALIWAPRPWAAFRGSWVNRLGRVESVWDLKGVWADQAQSDSQGSTTTATRNALPEHPNALAFQVSVVEASAYKPNTSSGQTQSTNSSPYLHLVKPKKVTQSDKLDDDLKNLLDPNQVRTKLRQSFGTDHSTQPQPQSLKTTTPVFGTSSGNLSSVLSGGGAGGGSSGSGQSGVDLSPVEKVSGWLVGQLPSTSDGNTSSTNNLAPNTNTGNDVVGVGRLSESNAAKMNDDVDGIVRTPLAELLDGEGQTADTGPQSVKFKSPDQIDFNRLFTHPVTDLFDPVTMLVYDQYIPLFIDIPASVNPKMVRLKVLSFDTNEQSLGLRLEFFKPDQDTQPNNNVQVNPNNGDFLPLLTASSQGPQTLFSPFNQWPD
notes: source: E. coli B834 (DE3), purified (HisTrap, Superdex 200)
B2: P40 polypeptide (from the N-end of P40/P90N to Arg445) (domain or fragment)
chain: SLANTYLLQDHNTLTPYTPFTTPLNGGLDVVRAAHLHPSYELVDWKRVGDTKLVALVRSALVRVKFQDTTSSDQSNTNQNALSFDTQESQKALNGSQSGSSDTSGSNSQDFASYVLIFKAAPRATWVFERKIKLALPYVKQESQGSGDQGSNGKGSLYKTLQDLLVEQPVTPYTPNAGLARVNGVAQDTVHFGSGQESSWNSQRSQKGLKNNPGPKAVTGFKLDKGRAYRKLNESWPVYEPLDSTKEGKGKDESSWKNSEKTTAENDAPLVGMVGSGAAGSASSLQGNGSNSSGLKSLLRSAPVSVPPSSTSNQTLSLSNPAPVGPQAVVSQPAGGATAAVSVNRTASDTATFSKYLNTAQALHQMGVIVPGLEKWGGNNGTGVVASRQDATSTNLPHAAGASQTGLGTGSPREPALTATSQR
notes: source: E. coli B834 (DE3), cleavage product in purified P40/P90N samples

Columns and labels:
Settings in all cases: both partners purified
[1] = biological target: P40/P90 long construct (residues 23-1114) (Mycoplasma pneumoniae, UniProt Q50341 23-1114); test: SEC
[2] = biological target: P40/P90N (short construct of P40/P90, residues Ser23-Val1003) (Mycoplasma pneumoniae, UniProt Q50341 23-1003); test: SEC
[3] = biological target: T1, P90N polypeptide (Ala446 to the C-end of P40/P90N) (Mycoplasma pneumoniae, UniProt Q50341 446-1003); test: SEC-MALS
T1 construct: source: E. coli B834 (DE3), cleavage product in purified P40/P90N samples
T1 sequence: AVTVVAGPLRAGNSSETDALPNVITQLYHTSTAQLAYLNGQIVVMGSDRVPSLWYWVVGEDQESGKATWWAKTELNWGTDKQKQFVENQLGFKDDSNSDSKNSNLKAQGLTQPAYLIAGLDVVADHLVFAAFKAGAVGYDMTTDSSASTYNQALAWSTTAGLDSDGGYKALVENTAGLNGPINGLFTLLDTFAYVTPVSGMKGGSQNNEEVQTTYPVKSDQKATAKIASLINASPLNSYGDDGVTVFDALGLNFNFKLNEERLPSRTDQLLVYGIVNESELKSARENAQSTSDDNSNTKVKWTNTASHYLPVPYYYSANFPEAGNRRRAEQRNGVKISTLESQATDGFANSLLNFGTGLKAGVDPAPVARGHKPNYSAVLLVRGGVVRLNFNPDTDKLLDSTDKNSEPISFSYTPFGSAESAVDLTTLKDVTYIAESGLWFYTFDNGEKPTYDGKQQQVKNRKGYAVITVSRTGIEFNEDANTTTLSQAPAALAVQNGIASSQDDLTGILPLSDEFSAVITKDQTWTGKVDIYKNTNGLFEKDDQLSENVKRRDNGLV

Row | Binder | binding result [1] | binding result [2] | binding result [3]
1 | B1 | binds | binds | –
2 | B2 | – | – | binds
